Data published in publication PMC7764960, “Nucleus Accumbens-Associated Protein 1 Binds DNA Directly through the BEN Domain in a Sequence-Specific Manner”.

Experiments:
NAC1 (322-485) [1] = target: T1, NAC1 (322-485) (Homo sapiens, UniProt Q96RE7 322-485); assay: ITC; first of two sequential events (Kd1); ITC: 20 mM HEPES pH 7.0, 0.1 M NaCl, 1 mM TCEP, 20 C (Fig 2 legend says 25 C); pull-down: 4 C with 10 ug poly(dI/dC), buffer not stated; NMR 298 K; conditions: protein: recombinant; tags: His (pET28HisTEV); blunt
T1 sequence: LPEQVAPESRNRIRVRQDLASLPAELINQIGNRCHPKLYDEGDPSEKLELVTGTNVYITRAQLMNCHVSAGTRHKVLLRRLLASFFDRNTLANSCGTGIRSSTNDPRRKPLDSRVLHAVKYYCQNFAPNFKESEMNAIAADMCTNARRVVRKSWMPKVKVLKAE

GST-NAC1 = target: T2, GST-NAC1 (Homo sapiens, UniProt Q96RE7 2-527); assay: pull-down; poly(dI/dC); ITC: 20 mM HEPES pH 7.0, 0.1 M NaCl, 1 mM TCEP, 20 C (Fig 2 legend says 25 C); pull-down: 4 C with 10 ug poly(dI/dC), buffer not stated; NMR 298 K; conditions: protein: recombinant; tags: GST N-term; chain copies: 2; label: 5' biotin on sense strand; blunt
T2 sequence: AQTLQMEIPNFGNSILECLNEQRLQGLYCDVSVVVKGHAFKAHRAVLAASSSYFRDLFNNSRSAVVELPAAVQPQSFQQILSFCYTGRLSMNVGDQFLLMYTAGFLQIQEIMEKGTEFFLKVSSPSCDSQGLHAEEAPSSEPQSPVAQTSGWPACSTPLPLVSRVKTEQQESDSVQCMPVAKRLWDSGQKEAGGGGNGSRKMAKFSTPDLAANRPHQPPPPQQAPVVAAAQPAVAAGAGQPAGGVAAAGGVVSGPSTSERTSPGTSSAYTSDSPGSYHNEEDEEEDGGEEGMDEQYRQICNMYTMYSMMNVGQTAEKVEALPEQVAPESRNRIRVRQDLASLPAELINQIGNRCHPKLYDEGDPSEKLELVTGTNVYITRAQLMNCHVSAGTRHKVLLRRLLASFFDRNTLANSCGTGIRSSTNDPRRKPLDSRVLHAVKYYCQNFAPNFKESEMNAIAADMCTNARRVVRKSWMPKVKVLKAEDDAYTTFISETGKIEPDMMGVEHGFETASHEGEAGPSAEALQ

NAC1 (322-485) [2] = target: T1, NAC1 (322-485); assay: ITC; single event; Table S2 prints 0.83; ITC: 20 mM HEPES pH 7.0, 0.1 M NaCl, 1 mM TCEP, 20 C (Fig 2 legend says 25 C); pull-down: 4 C with 10 ug poly(dI/dC), buffer not stated; NMR 298 K; conditions: protein: recombinant; tags: His (pET28HisTEV); blunt
NAC1 (322-485) [3] = target: T1, NAC1 (322-485); assay: ITC; single event; ITC: 20 mM HEPES pH 7.0, 0.1 M NaCl, 1 mM TCEP, 20 C (Fig 2 legend says 25 C); pull-down: 4 C with 10 ug poly(dI/dC), buffer not stated; NMR 298 K; conditions: protein: recombinant; tags: His (pET28HisTEV); blunt

B1: GP1 14-mer dsDNA (dsDNA)
DNA 1: GTATGCATGTATGT
DNA 2: ACATACATGCATAC
B1 was tested, and the Kd (NAC1 (322-485) [1]) was 160 nM.

B2: Biotin-GP1 5'-mut (dsDNA)
DNA 1: TGTGTGTGTCATCATGTATGTATTTATT
DNA 2: AATAAATACATACATGATGACACACACA
B2: binds (GST-NAC1).

B3: Biotin-GP1 3'-mut (dsDNA)
DNA 1: TGTGTGTGTATGCATGACGGTATTTATT
DNA 2: AATAAATACCGTCATGCATACACACACA
B3: binds (GST-NAC1).

B4: Biotin-GP1 (dsDNA)
DNA 1: TGTGTGTGTATGCATGTATGTATTTATT
DNA 2: AATAAATACATACATGCATACACACACA
B4: binds (GST-NAC1).

B5: de novo motif 2 (dsDNA)
DNA 1: AACCCCGCCCCAA
DNA 2: TTGGGGCGGGGTT
B5 showed a Kd (NAC1 (322-485) [2]) of 820 nM.

B6: de novo motif 1 (dsDNA)
DNA 1: AACCGCCGCCAA
DNA 2: TTGGCGGCGGTT
In the case of B6, the Kd (NAC1 (322-485) [3]) is reported as 3000 nM.
